Results as given in the supplement of paper PMC12667976.

B1: library; numbered along this chain (parent)
chain: MATDAALRRLLRLHRTEIAVAVDSAFPLLHALADHDVVPEDKFQETLHLKEKEGCPQAFHALLSWLLTQDSTAILDFWRVLFKDYNLERYGRLQPILDSFPKDVDLSQPRKGRKPPAVPKALVPPPRLPTKRKASEEARAAAPAALTPRGTASPGSQLKAKPPKKPESSAEQQRLPLGNGIQTMSASVQRAVAMSSGDVPGARGAVEGILIQQVFESGGSKKCIQVGGEFYTPSKFEDSGSGKNKARSSSGPKPLVRAKGAQGAAPGGGEARLGQQGSVPAPLALPSDPQLHQKNEDECAVCRDGGELICCDGCPRAFHLACLSPPLREIPSGTWRCSSCLQATVQEVQPRAEEPRPQEPPVETPLPPGLRSAGEEVRGPPGEPLAGMDTTLVYKHLPAPPSAAPLPGLDSSALHPLLCVGPEGQQNLAPGARCGVCGDGTDVLRCTHCAAAFHWRCHFPAGTSRPGTGLRCRSCSGDVTPAPVEGVLAPSPARLAPGPAKDDTASHEPALHRDDLESLLSEHTFDGILQWAIQSMARPAAPFPS

Variants of: B1
Assay: AIRE transcriptional activation functional score (insulin promoter-GFP; nonsense median 0, synonymous median 1) (normalised score); higher = higher AIRE activity (more reporter activation)
Conditions: with insulin promoter-GFP reporter in HEK293
Experimental: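 Deep mutational scan of full-length human AIRE (codon-optimized cDNA, DT-POPCode NNN libraries over three regions) integrated at a Bxb1 landing pad in HEK293 cells carrying an insulin core promoter-GFP reporter at a Flp-In site. Cells were sorted for the top 10% GFP about 14 days after transfection. Variant frequency log-ratios (select vs non-select, TileSeq) were rescaled so that the nonsense median is 0 and the synonymous median is 1, then averaged over biological replicates.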

AIRE transcriptional activation functional score of substitutions, site by site:
P176: M 2.1
K164: C 0.129, R 1.85, D -0.844, E 0.857, S 1.22, M 1.88, P 1.62, H 1.27, F 1.41, Q 0.909, N 1.52, L 1.14, G 1.83, I 0.719, V 0.666, Y 0.624, W 1.33, T 0.821, A 1.17
E167: R 0.328, L 1.76, C 1.33, P 0.414, Q 0.862, T 0.707, W 2.34, Y 2.17, I 1.19, D 1.12, H -0.185, K 0.721, S 0.898, M 1.68, A 0.894, V 1.18, F 1.89, G 1.02, N 1.8
E171: M 2.07, D 0.998, I 1.63, L 1.59, V 1.65, N 1.05, A 1.77, K 0.709, P 1.23, F 2.29, Y 1.41, Q 1.15, C 1.96, G 1.27, S 1.96, H 1.64, T 1.52, R 1.22, W 1.93
A160: N 0.242, D 0.974, R 1.01, C 1.05, W 1.82, G 0.964, K -0.392, M 0.0796, E -0.0286, T 0.43, L 0.749, H 0.574, V 1.38, F 1.12, P -0.0016, Y 1.08, Q -0.113, S 1.14, I 0.857
K165: Y 0.91, H 1.16, L 0.369, E 1.01, Q 0.596, M 1.15, F 1.23, I 2.29, P -0.251, G 0.47, C 0.37, N 0.909, W 1.06, D 0.206, V 0.921, T -0.814, R 0.872, A -0.0692, S 0.597
L177: A 0.839, C 0.72, D 0.322
S169: I 1.2, N 1.18, Y 1.62, Q 0.286, V 1.35, L 1.7, E 0.245, K 1.77, G 1.42, P 1.73, A 0.813, M 0.503, T -0.214, F 1.46, R 0.711, C 0.968, D 1.22, W 1.57
K159: P 0.44, N 1.33, M 0.791, L 1.18, I 1.4, Q 0.00224, Y 1.33, S 0.905, W 1.36, V 1.06, R 1.48, T 1.05
Q173: K 1.44, F 1.97, N 1.68, S 1.34, D 0.988, E 0.663, W 1.54, L 1.52, C 1.51, G 0.757, V 1.32, R 1.67, H 0.885, M 2.11, I 1.45, A 0.957, Y 1.93, T 1.44, P 1.05
R174: V 0.506, L 0.495, E 0.744, G 0.531, M 0.283, A 0.803, N -0.393, D 0.334, T 0.614, K 0.973, Y 1.09, I 0.22, H 0.805, P 0.727, C 0.35, S 0.758, W 2.14, F 1.53, Q 0.21
